The term stoichiometry N denotes the number of molecules, sites or subunits per partner or assembly.

This is an account of results in article PMC9547003.

The target in the assay is bacteriophage T7 endonuclease I (C113S, S29C; called wild type in the paper), Cy3-labelled (bacteriophage T7) (UniProt P00641). As to the kind of experiment: two-step photobleaching of single fluorescent molecules (confocal microscopy with optical tweezers); Cy3-labelled endonuclease I (one dye on each monomer) diffusing on force-stretched dsDNA held between optically trapped beads; 1 nM protein, 25 mM Tris-HCl pH 7.5, 50 mM NaCl, 0.1% BSA, 1 mM CaCl2 or MgCl2.

“bacteriophage T7 endonuclease I (C113S, S29C; called wild type in the paper), Cy3-labelled (from UniProt P00641 1-149) (enzyme)”: the stoichiometry N is 2.
